Assay results taken from patent US8703698B2, “Compositions and methods for treating atherosclerosis” (The University of Chicago, priority 2003, dated 2014).

How the values were obtained:
[1] = biological target: T1, acyl CoA:cholesterol acyl transferase (Mus musculus, UniProt Q61263); assay: Incorporation of [14C]oleate into cholesteryl ester in cholesterol-laden macrophages (ACAT activity); type: cell-based, murine; details: for relative acyl CoA:cholesterol acyl transferase activity: liposomes containing 0.5 μM synthetic peptide, 6 hour incubation, cholesterol-laden murine cells
T1 construct: host or cells: J774 mouse macrophages, cholesterol-loaded
T1 sequence (Q61263 1-540): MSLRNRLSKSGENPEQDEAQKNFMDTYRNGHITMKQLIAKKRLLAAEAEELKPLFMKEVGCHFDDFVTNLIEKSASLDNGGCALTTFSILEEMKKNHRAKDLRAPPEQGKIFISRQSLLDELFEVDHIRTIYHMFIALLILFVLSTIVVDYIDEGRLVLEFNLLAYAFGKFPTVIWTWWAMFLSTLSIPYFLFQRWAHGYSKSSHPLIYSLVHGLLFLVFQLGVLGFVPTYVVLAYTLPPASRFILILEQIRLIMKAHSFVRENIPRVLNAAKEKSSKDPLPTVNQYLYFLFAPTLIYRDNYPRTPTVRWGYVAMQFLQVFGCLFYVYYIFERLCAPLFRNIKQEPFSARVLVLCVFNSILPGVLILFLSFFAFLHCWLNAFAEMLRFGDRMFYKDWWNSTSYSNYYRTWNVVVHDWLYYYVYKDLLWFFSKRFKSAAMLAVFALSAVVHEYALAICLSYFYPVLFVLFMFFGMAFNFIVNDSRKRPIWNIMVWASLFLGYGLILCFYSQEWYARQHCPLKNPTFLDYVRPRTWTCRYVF

[2] = tested on: cholesterol ester hydrolase; assay: Rate of hydrolysis of cholesteryl ester in cholesterol-laden J774 cells (cholesterol ester hydrolase activity); type: cell-based, murine
[3] = lipoproteins or protein liposomes, tissue culture

DTIADQEANRHGRSGKDPNYYRPPGLPDKY [SEQ ID NO:4, synthetic peptide, residues 74-103 of murine SAA2.1]
relative acyl CoA:cholesterol acyl transferase activity [1]: no significant effect
increase in cholesterol ester hydrolase activity ([2]; liposomes containing 0.5 μl synthetic peptide, cholesterol-laden J774 cells, Sandoz 58-035 present, 0 to 24 hours): 3 fold

GFFSFVHEAFQGAGDMWRAY [SEQ ID NO:1, synthetic peptide, residues 1-20 of murine SAA2.1]
relative acyl CoA:cholesterol acyl transferase activity [1]: two-fold decrease
rate of hydrolysis of [14C]-labeled cholesteryl oleate versus protein-free liposomes ([2]; liposomes containing 0.5 μl synthetic peptide, J774 cells, Sandoz 58-035 present): no significant differences

B1: GFFSFVHEAFQGAGDMWRAYTDMKEANWKNSDKYFHARGNYDAAQRGPGGVWAAEKISD GREAFQEFFGRGHEDTIADQEANRHGRSGKDPNYYRPPGLPDKY (protein, listed as Mus musculis)
chain: GFFSFVHEAFQGAGDMWRAYTDMKEANWKNSDKYFHARGNYDAAQRGPGGVWAAEKISDGREAFQEFFGRGHEDTIADQEANRHGRSGKDPNYYRPPGLPDKY
notes: full length murine serum amyloid A isoform 2.1 purified from acute phase plasma
acyl CoA:cholesterol acyl transferase activity in intact cholesterol-laden macrophages [1, 3]: marked reduction of acyl CoA:cholesterol acyl transferase activity
cholesterol ester hydrolase activity in intact cholesterol-laden macrophages [2, 3]: enhancement of cholesterol ester hydrolase activity
